Tests used:
[1] = target: PP1c (PP1cα), protein phosphatase 1 catalytic subunit; assay: PP1c pull-down from adenovirus-infected cardiomyocytes (I-1 + PKCα dn), I-1 Western blot, quantified
[2] = target: PP1c (PP1cα), protein phosphatase 1 catalytic subunit; assay: PP1c pull-down from adenovirus-infected cardiomyocytes (I-1 + PKCα wt), I-1 Western blot, quantified
[3] = test system: recombinant wildtype inhibitor-1 isolated from E. coli
[4] = test system: recombinant Ser-67-Ala inhibitor-1 isolated from E. coli

Chain of PP1c (PP1cα), protein phosphatase 1 catalytic subunit (P62138 2-330): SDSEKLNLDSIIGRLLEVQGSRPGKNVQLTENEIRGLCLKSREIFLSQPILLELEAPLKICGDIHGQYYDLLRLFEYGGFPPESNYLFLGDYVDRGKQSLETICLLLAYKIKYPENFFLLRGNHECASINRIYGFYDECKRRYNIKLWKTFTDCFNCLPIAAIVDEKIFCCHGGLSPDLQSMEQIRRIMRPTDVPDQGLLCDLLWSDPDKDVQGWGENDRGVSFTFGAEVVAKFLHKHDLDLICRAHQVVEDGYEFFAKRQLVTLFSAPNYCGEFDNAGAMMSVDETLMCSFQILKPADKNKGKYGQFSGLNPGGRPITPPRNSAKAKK

Row | Substance | increase of I-1/PP1c complex formation when dominant negative PKCα is expressed [1] [% increase] | reduction of I-1 interaction with PP1c when wildtype PKCα is overexpressed [2] [% reduction] | in vitro phosphorylation with 32P-ATP, SDS-PAGE and quantification of radioactivity [3] | in vitro phosphorylation with 32P-ATP, relative to wildtype I-1 [4]
1 | Inhibitor-1 (I-1), expressed from adenovirus in neonatal rat cardiomyocytes | > 70 | 50 |  | 
2 | protein kinase C isolated from rabbit heart muscle |  |  | Wildtype I-1 protein was directly phosphorylated in vitro in a time-dependent manner at stoichiometric levels by PKC | approximately 50% less phosphorylation by PKC compared with equal amounts of wildtype protein

— US20050066381A1
